Experimental data reported in US20220241354A1, “COMPOSITION” (MORINAGA MILK INDUSTRY CO., LTD., priority 2019, published 2022).

Experiments:
[1] = test system: Bifidobacterium breve M-16V; assay: Growth promoting effect on Bifidobacterium breve M-16V (turbidity at 600 nm after anaerobic culture); assay type: cell-based; details: 2′-FL 0.000 mass %, glucose-free MRS, 37° C., 24 hours, n = 4
Procedure: (§1) DifcoMRS (BD) was dissolved in purified water as described in a package insert and sterilized at 115° C. for 15 minutes. L-Cysteine hydrochloride (Wako) was dissolved in purified water, filtered and sterilized, and was aseptically added to MRS medium cooled to room temperature after sterilization to have a final concentration of 0.05% by mass.
as §1, with “A reagent” for “DifcoMRS (BD)”, “with the composition shown” for “as described”, “Table 1” for “a package insert”
Human milk oligosaccharide (2′-fucosyllactose (2′-FL) (Carbosynth)) and lactoferrin (produced by Morinaga Milk Industry Co., Ltd., iron content 15.8 mg/100 g) were dissolved in purified water, respectively. They were filtered and sterilized after dissolution.
(§2) 150 μL of a pre-culture solution of Bifidobacterium breve M-16V was added to 3 mL of MRS medium prepared in (1) (i), and was anaerobically cultured at 37° C. for 16 hours. After culturing, the cells were separated from the culture solution by centrifuging at 1500×g for 5 minutes. The culture solution was removed, and the cells were resuspended in 3 mL of glucose-free MRS medium prepared in (1) (ii).
(§3) The pre-culture solution prepared in (2) was added to the glucose-free MRS medium prepared in (1) (ii) to have a final concentration of 1 v/v %. Further, the 2′-fucosyllactose (2′-FL) solution and the lactoferrin solution prepared in (1) (iii) were respectively added to have the final concentrations shown in Table 2, and were dispensed into a 96-well plate at 200 μL/well.
(§4) Then, the cells were anaerobically cultured at 37° C. for 24 hours. After culturing, turbidity was measured at a wavelength of 600 nm using a microplate reader (Corona Electric) to evaluate the growth of bifidobacteria.

[2] = test system: Bifidobacterium infantis M-63; assay: Growth promoting effect on Bifidobacterium infantis M-63 (turbidity at 600 nm); assay type: cell-based; details: 2′-FL 0.000 mass %, 37° C., 24 hours, n = 12
Procedure: as §2, §3, §4
The same operation as in Example 1 was carried out except that the bifidobacteria were replaced with Bifidobacterium infantis M-63, and the growth was evaluated.

B1: lactoferrin (protein, UniProt P24627 20-708, looked up)
Lactotransferrin: APRKNVRWCTISQPEWFKCRRWQWRMKKLGAPSITCVRRAFALECIRAIAEKKADAVTLDGGMVFEAGRDPYKLRPVAAEIYGTKESPQTHYYAVAVVKKGSNFQLDQLQGRKSCHTGLGRSAGWIIPMGILRPYLSWTESLEPLQGAVAKFFSASCVPCIDRQAYPNLCQLCKGEGENQCACSSREPYFGYSGAFKCLQDGAGDVAFVKETTVFENLPEKADRDQYELLCLNNSRAPVDAFKECHLAQVPSHAVVARSVDGKEDLIWKLLSKAQEKFGKNKSRSFQLFGSPPGQRDLLFKDSALGFLRIPSKVDSALYLGSRYLTTLKNLRETAEEVKARYTRVVWCAVGPEEQKKCQQWSQQSGQNVTCATASTTDDCIVLVLKGEADALNLDGGYIYTAGKCGLVPVLAENRKSSKHSSLDCVLRPTEGYLAVAVVKKANEGLTWNSLKDKKSCHTAVDRTAGWNIPMGLIVNQTGSCAFDEFFSQSCAPGADPKSRLCALCAGDDQGLDKCVPNSKEKYYGYTGAFRCLAEDVGDVAFVKNDTVWENTNGESTADWAKNLNREDFRLLCLDGTRKPVTEAQSCHLAVAPNHAVVSRSDRAAHVKQVLLHQQALFGKNGKNCPDKFCLFKSETKNLLFNDNTECLAKLGGRPTYEEYLGTEYVTAIANLKKCSTSPLLEACAFLTR
notes: lactoferrin produced by Morinaga Milk Industry Co., Ltd., iron content 15.8 mg/100 g
For B1, the OD600 ([1]; lactoferrin 0.031 mg/mL) was 0.072, the OD600 ([1]; lactoferrin 0.063 mg/mL) was 0.074 and the OD600 ([1]; lactoferrin 0.125 mg/mL) was 0.073. The OD600 ([1]; lactoferrin 0.250 mg/mL) was 0.074, the OD600 ([1]; lactoferrin 0.500 mg/mL) was 0.075 and the OD600 ([1]; lactoferrin 1.000 mg/mL) was 0.078. For the same molecule, the OD600 ([2]; lactoferrin 0.500 mg/mL) was 0.093 and the OD600 ([2]; lactoferrin 1.000 mg/mL) was 0.101.
